Laboratory results from patent US20260242478A1 (published 2026).
Where no end group is shown, it is not given here.

B1: Phage-3462 (peptide)
peptide: VLRSCVPEWMCSGF
notes: also called Peptide-180 library clone; not shown: pIII filament protein of the bacteriophage
B2: Phage-3456 (peptide)
peptide: HIMQCKPAWMCSGL
notes: as for B1
B3: Phage-3454 (peptide)
peptide: VTMRCTPDWMCVGF
notes: as for B1
B4: Phage-3461 (peptide)
peptide: TELLCTPRWMCEGF
notes: as for B1
B5: Phage-3449 (peptide)
peptide: EDVRCVPAWMCNGF
modifications: cysteine pairing not given here; also: fused to pIII of bacteriophage
notes: as for B1
B6: Phage-3458 (peptide)
peptide: VVAQCVPRWMCDGF
notes: as for B1
B7: Phage-3455 (peptide)
peptide: IEALCVPDWMCRGF
notes: as for B1
B8: Phage-3452 (peptide)
peptide: MERFCIPSWMCEGL
notes: as for B1
B9: Phage-3451 (peptide)
peptide: TINICKPQWMCIGF
notes: as for B1
B10: Phage-3457 (peptide)
peptide: VEKMCRPLWMCHGF
notes: as for B1
B11: Phage-3459 (peptide)
peptide: SPPLCVPVWMCHGF
notes: as for B1
B12: Phage-3453 (peptide)
peptide: FEFRCTPEWMCRGF
notes: as for B1
B13: Phage-3450 (peptide)
peptide: PLKLCIPEWMCVEL
notes: as for B1
B14: Phage-3460 (peptide)
peptide: NAIMCRPAWMCSGF
notes: as for B1
B15: Phage-3482 (peptide)
peptide: YFKHCVPQWMCEGF
notes: tested as crude clonal phage supernatant
B16: Phage-3488 (peptide)
peptide: ITQMCKPAWMCVGL
notes: as for B15
B17: Phage-3483 (peptide)
peptide: ITPACVPEWMCLGL
notes: as for B15
B18: Phage-3489 (peptide)
peptide: LDRMCVPLWMCEGF
notes: as for B15
B19: Phage-3480 (peptide)
peptide: EFIKCEPKWMCQGF
notes: as for B15
B20: Phage-3485 (peptide)
peptide: EAIRCVPVWMCQGF
notes: as for B15
B21: Phage-3484 (peptide)
peptide: AERMCVPSWMCQGL
notes: as for B15
B22: Phage-3481 (peptide)
peptide: DTIACRPEWMCTGF
notes: as for B15
B23: Phage-3476 (peptide)
peptide: VSPMCRPAWMCEGL
notes: as for B15
B24: Phage-3479 (peptide)
peptide: MDARCVPSWMCIGV
notes: as for B15
B25: Phage-3486 (peptide)
peptide: YSQMCKPAWMCNGF
notes: as for B15
B26: Phage-3487 (peptide)
peptide: PVAVCKPAWMCEGF
notes: as for B15
B27: Phage-3478 (peptide)
peptide: SDKFCVPEWMCEWI
notes: as for B15
B28: Phage-3477 (peptide)
peptide: VWKTCVPEWMCVGY
notes: as for B15
B29: Phage-3491 (peptide)
peptide: LEMVCKPEWMCLGL
modifications: cysteine pairing not given here; also: fused to pIII of bacteriophage, pIII and linker not given here
notes: Peptide-180 library clone, tested as clonal phage supernatant with the peptide fused to pIII of the bacteriophage
B30: Phage-3493 (peptide)
peptide: YPTWCVPTWMCTGM
modifications: cysteine pairing not given here; also: fused to pIII of bacteriophage, pIII and linker not given here
notes: as for B29
B31: Phage-3492 (peptide)
peptide: DILRCVPEWMCTGF
modifications: cysteine pairing not given here; also: fused to pIII of bacteriophage, pIII and linker not given here
notes: as for B29
B32: Phage-3490 (peptide)
peptide: VNMICKPAWMCKGF
modifications: cysteine pairing not given here; also: fused to pIII of bacteriophage, pIII and linker not given here
notes: as for B29

Biological target: T1, PSMA Fab (006 PSMA Fab) (Fab biotinylated for capture on neutravidin plates (site not given))
T1 construct: also called Anti-PSMA Fab; anti-PSMA Fab
Assay: clonal phage ELISA; biotinylated PSMA Fab on neutravidin plate, blocking buffer alone; anti-M13-HRP detection;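 further: clonal phage applied as crude supernatants to wells preincubated with blocking buffer, binding read by ELISA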

Binder	Phage binding ELISA signal, Anti-PSMA Fab
B1	1.74
B2	1.74
B3	1.74
B4	1.74
B5	1.75
B6	1.74
B7	1.74
B8	1.74
B9	1.74
B10	1.74
B11	1.74
B12	1.74
B13	1.75
B14	1.74

Biological target: T2, PSMA Fab (biotinylated (site not stated))
T2 construct: Biotinylated PSMA Fab captured on neutravidin coated plates in the phage ELISA; also called Anti-PSMA Fab; 006 PSMA Fab
Assay: clonal phage ELISA, biotinylated PSMA Fab on neutravidin plate, anti-M13 HRP detection;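 further: crude clonal phage supernatants added to wells pretreated with blocking buffer either with or without PSMA antigen, bound phage read after washing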

Binder	Phage binding ELISA signal, Anti-PSMA Fab
B15	1.72
B16	1.72
B17	1.72
B18	1.71
B19	1.72
B20	1.72
B21	1.72
B22	1.72
B23	1.73
B24	1.72
B25	1.72
B26	1.72
B27	1.72
B28	1.73

Biological target: T2, PSMA Fab
Assay: clonal phage ELISA on PSMA Fab pre-incubated with PSMA antigen as competitor
Procedure: (§1) Clonal phage were harvested as crude supernatants and screened via standard ELISAs. […] Prior to the addition of clonal phage. wells were incubated with blocking buffer and PSMA antigen or blocking buffer alone. Without washing or aspirating, clonal phage supernatants were then added to the wells and incubated for a short time. Wells were then washed followed by detection of bound phage using a horse radish conjugated anti-M13 antibody.

Binder	Phage binding ELISA signal, Anti-PSMA Fab with PSMA antigen
B15	0.146
B16	0.123
B17	0.0774
B18	0.0991
B19	0.0826
B20	0.0989
B21	0.0943
B22	0.0607
B23	0.0909
B24	0.48
B25	0.101
B26	0.0982
B27	0.0588
B28	0.112

Biological target: T3, Anti-PSMA Fab
T3 construct: Biotinylated and captured on neutravidin coated plates in the phage ELISA; also called 006 PSMA Fab
Assay: clonal phage ELISA on captured PSMA Fab pre-incubated with PSMA antigen as competitor, anti-M13 HRP detection;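 further: crude clonal phage supernatants tested by ELISA, wells first treated with blocking buffer plus PSMA antigen, bound phage read out via HRP-linked anti-M13 antibody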
Procedure: as §1

Binder	Phage binding ELISA signal, Anti-PSMA Fab with PSMA antigen
B29	0.0996
B30	0.0716
B31	0.0911
B32	0.0872

Biological target: T3, Anti-PSMA Fab
Assay: clonal phage ELISA on biotinylated PSMA Fab captured on neutravidin plate, anti-M13 HRP detection, blocking buffer alone
Procedure: as §1

Binder	Phage binding ELISA signal, Anti-PSMA Fab
B29	1.71
B30	1.71
B31	1.71
B32	1.71

Biological target: T1, PSMA Fab (006 PSMA Fab)
Assay: clonal phage ELISA; biotinylated PSMA Fab on neutravidin plate, wells pre-incubated with PSMA antigen as competitor; anti-M13-HRP detection
Procedure: as §1

Binder	Phage binding ELISA signal, Anti-PSMA Fab in presence of PSMA antigen
B1	0.075
B2	0.0654
B3	0.0737
B4	0.163
B5	0.0724
B6	0.103
B7	0.0663
B8	0.0682
B9	0.0893
B10	0.0944
B11	0.148
B12	0.0706
B13	0.0747
B14	0.0847
